What is called EC50 is the concentration giving half of the maximal effect.

In one assay the target is T1, FcγRIIB protein (human, UniProt P31994 43-217, biotinylated (SureLINK Biotin Kit) in the ELISA of Example 1).
T1 construct: Soluble/recombinant antigen used in ELISA; also called bt-FcγRIIB; recombinant FcγRIIB protein
T1 sequence: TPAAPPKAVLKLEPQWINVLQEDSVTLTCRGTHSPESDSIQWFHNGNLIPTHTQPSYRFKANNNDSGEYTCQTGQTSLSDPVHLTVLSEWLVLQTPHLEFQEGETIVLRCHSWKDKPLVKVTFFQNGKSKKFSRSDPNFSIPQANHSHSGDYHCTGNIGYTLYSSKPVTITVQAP
Nature of the assay: ELISA; bt-FcγRIIB on streptavidin plate, purified FN3 domain titrated. How it is done: (§1) For primary ELISA, Maxisorp 96-well plates were loaded with 100 μL per well of streptavidin (Promega; 5 μg/mL in PBS) and then held at 4° C. overnight. The next day, the streptavidin-coated plates were washed 3×TBST and then blocked with 250 μL Starting Block T20 (Pierce-cat#37543). After a 1 h incubation, all plates were washed 3 times with 1×TBST, loaded with 100 μL per well of either bt-FcγRIIA, bt-FcγRIIB, or bt-HSA (negative screen) all at 1 μg/mL, and held at room temperature for 1 h. The previously lysed FN3 domains were centrifuged at 3500 rpm for 10 minutes, diluted 1:10 in Starting Block T20 and added 100 μL each to the plates. After a 1 h incubation at room temperature, the plates were washed 3× with 1×TBST and the wells were loaded with 100 μL of a HRP conjugated rabbit polyclonal antibody against tencon 27. After a final 1 h incubation at room temperature, the plates were washed 3× with 1×TBST, loaded with 100 μL per well of the chemiluminescence substrate POD (Roche), and read in a Perkin Elmer Envision plate reader. Positive binding colonies (those clones showing 5-fold higher binding to FcγRIIA or FcγRIIB when compared to HSA) were subjected to Sanger sequencing and identified coding sequences were in silico translated to amino acid sequences. Sequence unique FN3 domains were expressed in BL21 cells and purified using nickel sepharose plates. Antigen binding of purified FN3 domains in a dilution series was performed. Specifically, in an ELISA format, Streptavidin coated plates (Promega #Z7041) were used to capture 50 μL of 1 μg/mL of either bt-FcγRIIB, bt-FcγRIIA, or as a negative control against sticky FN3 domains bt-HSA. To this FN3 domains were added at 10 μM then diluted 1:5 down to 128 pM, and detected for binding using a HRP conjugated rabbit polyclonal against tencon 27 and POD substrate (Roche #11582950001). Binding curves and EC50 values were calculated using X=log(x) transformation and non-linear regression (curved slope) calculations of Prism GraphPad.
A general note: In an ELISA, binding on a coated surface is turned into a signal by an enzyme label.

The target of another assay is T2, FcγRIIA protein (human, UniProt P12318 36-217, biotinylated (SureLINK Biotin Kit) in the ELISA of Example 1).
T2 construct: Soluble/recombinant antigen used in ELISA; also called bt-FcγRIIA; recombinant FcγRIIA protein
T2 sequence: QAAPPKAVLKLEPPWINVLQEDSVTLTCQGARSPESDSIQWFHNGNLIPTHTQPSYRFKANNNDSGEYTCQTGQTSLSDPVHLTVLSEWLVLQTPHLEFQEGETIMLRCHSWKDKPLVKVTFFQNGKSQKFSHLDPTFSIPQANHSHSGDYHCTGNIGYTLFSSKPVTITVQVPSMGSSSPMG
Nature of the assay: ELISA; bt-FcγRIIA on streptavidin plate, purified FN3 domain titrated. On the procedure: as §1

Assay [1] has as its target T3, human FcγRIIB (NM_004001) expressed on cells (human, UniProt P31994 43-310).
T3 construct: Transiently expressed on Expi293F cells; also called Expi293F FcγRIIB; HEK293F cells expressing FcγRIIB
T3 sequence: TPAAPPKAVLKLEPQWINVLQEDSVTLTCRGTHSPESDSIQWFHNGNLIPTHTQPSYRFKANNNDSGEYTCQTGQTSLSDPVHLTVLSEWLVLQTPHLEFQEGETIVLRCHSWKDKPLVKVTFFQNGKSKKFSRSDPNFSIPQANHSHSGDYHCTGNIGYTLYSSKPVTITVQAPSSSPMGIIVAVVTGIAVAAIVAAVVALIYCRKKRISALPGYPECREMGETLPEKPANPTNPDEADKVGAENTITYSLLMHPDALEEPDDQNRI
Nature of the assay: flow cytometry; Raji cells (express predominantly FcγRIIB). On the procedure: (§2) 2×10⁵ cells per well were seeded in 96-well plate and blocked in BSA Stain Buffer (BD Biosciences, San Jose, USA) for 30 min at 4° C. Cells were incubated with test mAbtyrin on ice for 1.5 h at 4° C. After being washed twice with BSA stain buffer, the cells were incubated with R-PE labeled anti-human or anti-mouse IgG secondary antibody (Jackson Immunoresearch Laboratories) for 45 min at 4° C. The cells were washed twice in stain buffer and then resuspended in 150 μL of Stain Buffer containing 1:200 diluted DRAQ7 live/dead stain (Cell Signaling Technology, Danvers, USA). PE and DRAQ7 signals of the stained cells were detected by Miltenyi MACSQuant flow cytometer (Miltenyi Biotec, Auburn, USA) using B2 and B4 channel respectively. Live cells were gated on DRAQ7 exclusion and the geometric mean fluorescence signals were determined for at least 10,000 live events collected. FlowJo software (Tree Star) was used for analysis. Data was plotted as the logarithm of antibody concentration versus mean fluorescence signals. Nonlinear regression analysis was performed by GraphPad Prism 6 (GraphPad Software, Inc.) and EC₅₀ values were calculated.
Raji cell is a cell line derived from B cells that express predominantly FcγRIIB. The binding of mAbtyrins on Raji cells were investigated by flow cytometry assay described for testing mAbtyrin binding to FcγR. Binding of the mAbtyrins were detected by flow cytometry using a PE-labeled Goat F(ab′) against Human IgG(γ).
A general note: Flow cytometry measures light scatter and fluorescence of single cells or particles in a stream.

The target of assay [2] is T3, human FcγRIIB (NM_004001) expressed on …. As to the kind of experiment: flow cytometry; Expi293F cells transfected with FcγRIIB. On the procedure:
(§3) Plasmids expressing cDNAs encoding human FcγRI (NM_000566) (SEQ ID NO: 44), FcγRIIA (NM_021642) (SEQ ID NO: 2), FcγRIIB (NM_004001) (SEQ ID NO: 3), and FcγRIIIA (NM_000569) (SEQ ID NO: 45) (Origene) were transiently transfected into Expi293F cells by ExpiFectamine293 transfection kit (Life Technologies). Flow cytometry assays were performed 48 h after transfection.
as §2

Assay [3] has the same target. Nature of the assay: flow cytometry; Raji cells (express predominantly FcγRIIB). The source holds these as a separate data set.
For assay [4], the target named is T4, human FcγRIIA (NM_021642) expressed on cells (human, UniProt P12318 36-317).
T4 construct: Transiently expressed on Expi293F cells; also used here for FcγRIIA on human macrophages in the ADCP assay; also called Expi293F FcγRIIA; HEK293F cells expressing FcγRIIA
T4 sequence: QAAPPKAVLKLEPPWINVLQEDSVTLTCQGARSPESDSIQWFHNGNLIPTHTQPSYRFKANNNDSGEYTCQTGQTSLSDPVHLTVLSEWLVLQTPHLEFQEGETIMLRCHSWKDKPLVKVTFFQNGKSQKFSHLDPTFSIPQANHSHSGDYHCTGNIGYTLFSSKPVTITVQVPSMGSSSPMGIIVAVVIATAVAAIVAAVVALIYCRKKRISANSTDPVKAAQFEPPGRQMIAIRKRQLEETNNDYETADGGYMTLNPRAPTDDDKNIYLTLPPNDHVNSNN
As to the kind of experiment: flow cytometry; Expi293F cells transfected with FcγRIIA. How it is done:
as §3, §2

The target in assay [5] is T5, human OX40 expressed on HEK-Blue: OX40 cells (human, UniProt P43489 29-277).
T5 construct: also called CD134
T5 sequence: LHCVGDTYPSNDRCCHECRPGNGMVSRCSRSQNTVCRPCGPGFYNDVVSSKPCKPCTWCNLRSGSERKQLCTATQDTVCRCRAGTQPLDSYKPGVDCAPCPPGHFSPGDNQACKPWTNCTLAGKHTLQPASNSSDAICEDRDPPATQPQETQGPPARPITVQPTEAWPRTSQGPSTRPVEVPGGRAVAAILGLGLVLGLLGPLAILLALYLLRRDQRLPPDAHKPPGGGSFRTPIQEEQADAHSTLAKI
Nature of the assay: flow cytometry; HEK-Blue: OX40 cells. How it is done: as §2
The binding of mAbtyrins on OX40 expressed on cell surface were investigated by flow cytometry assay described for testing mAbtyrin binding to FcγR. A stable HEK-Blue reporter cell line expressing human OX40 (HEK-Blue: OX40) was established by transfection OX40 expression plasmid (pUNO1-hOX40) into HEK-Blue™ Null 1 cells engineered to express a secreted embryonic alkaline phosphatase (SEAP) reporter gene under the control of NF-κB-inducible promoter (IFN-β minimal promoter). mAbtyrins were incubated with HEK-Blue: OX40 cells and the binding was detected by flow cytometry using a PE-labeled Goat F(ab′)₂ against Human IgG(γ).

Assay [6] has as its target T4, human FcγRIIA (NM_021642) expressed on …. As to the kind of experiment: cell-based or functional assay.
In assay [7] the target is T3, human FcγRIIB (NM_004001) expressed on …. Nature of the assay: cell-based or functional assay.

Substitutions are numbered along the chain they refer to.

B1: R2BS6 (designed binder)
chain: LPAPKNLVVSRVTEDSARLSWTAPDAAFDSFLIQYQESEKVGEAIVLTVPGSERSYDLTGLKPGTEYTVSIYGVQYAAWYLPRHHEASNPLSAIFTT
notes: expressed in E. coli BL21 and purified on nickel sepharose; also called R2BS6 FN3 domain
Consider B1, for which the EC50 with FcγRIIB protein came to 7.59 nM; in the assay with FcγRIIA protein, 27.3 nM.

B2: R2BS39 (designed binder)
chain: LPAPKNLVVSRVTEDSARLSWTAPDAAFDSFLIQYQESEKVGEAIVLTVPGSERSYDLTGLKPGTEYTVSIYGVSHGPWYNYGEWRSNPLSAIFTT
notes: expressed in E. coli BL21 and purified on nickel sepharose; also called R2BS39 FN3 domain
On to B2, for which the EC50 came out at 419 nM in the assay with FcγRIIB protein and 15.5 nM with FcγRIIA protein.

B3: R2BS29 (designed binder)
chain: LPAPKNLVVSRVTEDSARLSWTAPDAAFDSFPIYYWEYRVGGEAIVLTVPGSERSYDLTGLKPGTEYFVYINGVKGGEESRPLSAIFTT
notes: expressed in E. coli BL21 and purified on nickel sepharose; also called R2BS29 FN3 domain; R2B29
With B3, the EC50 amounted to 3.57 nM with FcγRIIB protein and 3.22 nM in the assay with FcγRIIA protein.

B4: R2BS26 (designed binder)
chain: B3 chain with Y34A, W36I, R39W, V40T, Y70W, N72H, E78A, E79W, R81S
notes: expressed in E. coli BL21 and purified on nickel sepharose; also called R2BS26 FN3 domain
As to B4, the EC50 stood at 5.3 nM with FcγRIIB protein and 6.51 nM with FcγRIIA protein.

B5: R2BS12 (designed binder)
chain: B3 chain with P32L, Y34A, W36A, R39W, V40E, I45V, Y70Q, E78F, E79W, R81I
notes: expressed in E. coli BL21 and purified on nickel sepharose; also called R2BS12 FN3 domain; R2B12
As to B5, the results for the EC50 with FcγRIIB protein and in the assay with FcγRIIA protein were 43 nM and 9.6 nM, respectively.

B6: R2BS56 (designed binder)
chain: B3 chain with P32S, Y34A, V40K, Y70L, N72Y, E78W, E79Q, R81K
notes: expressed in E. coli BL21 and purified on nickel sepharose; also called R2BS56 FN3 domain; R2B56
Turning to B6, the EC50 with FcγRIIB protein came to 7.32 nM; with FcγRIIA protein, 5.5 nM.

B7: R2BS9 (designed binder)
chain: B3 chain with P32W, W36L, R39W, V40R, Y70Q, N72H, E78Q, E79Y, R81Y
notes: expressed in E. coli BL21 and purified on nickel sepharose; also called R2BS9 FN3 domain
As for B7, the values for the EC50 in the assay with FcγRIIB protein and in the assay with FcγRIIA protein were 4.51 nM and 5.49 nM, respectively.

B8: OX40SF2IgG2sigma_R2BS26_HC-C (bispecific antibody)
heavy: QVQLVQSGAEVKKPGSSVKVSCKASGYTFKDYTMHWVRQAPGQGLEWIGGIYPNNGGSTYNQNFKDRVTLTADKSTSTAYMELSSLRSEDTAVYYCARMGYHGPHLDFDVWGQGTTVTVSSASTKGPSVFPLAPCSRSTSESTAALGCLVKDYFPEPVTVSWNSGALTSGVHTFPAVLQSSGLYSLSSVVTVPSSNFGTQTYTCNVDHKPSNTKVDKTVERKCCVECPPCPAPPAAASSVFLFPPKPKDTLMISRTPEVTCVVVDVSAEDPEVQFNWYVDGVEVHNAKTKPREEQFNSTFRVVSVLTVLHQDWLNGKEYKCKVSNKGLPSSIEKTISKTKGQPREPQVYTLPPSREEMTKNQVSLTCLVKGFYPSDIAVEWESNGQPENNYKTTPPMLDSDGSFFLYSKLTVDKSRWQQGNVFSCSVMHEALHNHYTQKSLSLSPGKGGGGGSGGGGSGGGGSGGGGSLPAPKNLVVSRVTEDSARLSWTAPDAAFDSFPIAYIEYWTGGEAIVLTVPGSERSYDLTGLKPGTEYFVWIHGVKGGAWSSPLSAIFTT
light: DIQMTQSPSSLSASVGDRVTITCKASQDVGAAVAWYQQKPGKAPKLLIYWASTRHTGVPSRFSGSGSGTDFTLTISSLQPEDFATYYCQQYINYPLTFGGGTKVEIKRTVAAPSVFIFPPSDEQLKSGTASVVCLLNNFYPREAKVQWKVDNALQSGNSQESVTEQDSKDSTYSLSSTLTLSKADYEKHKVYACEVTHQGLSSPVTKSFNRGEC
notes: mAbtyrin: anti-OX40 antibody OX40SF2, effector silent IgG2sigma, with linker and R2BS26 FN3 domain at the C-terminus of the heavy chain; also called mAbtyrin
Take B8: the “Binding to Raji cells mean signals at 10 µg/ml” value in assay [1] turned out to be 2290 mean fluorescence signal. The EC50 in assay [1] was > 10 µg/mL; in assay [2] it was 1.38 µg/mL; in [4], 0.323 µg/mL. For the same molecule, in assay [3], the “fold binding signal over OX40SF2IgG2sigma at 10 µg/mL” value is ≥ 6 fold. Further, the “Binding to HEK-Blue: OX40 cells (mean signal at 1 µg/ml)” value in assay [5] was determined as 10200 mean fluorescence signal. Further, the “% OX40 cell killed by macrophages (ADCP, 1 µg/ml)” value in assay [6] was 92%. Moreover, the “% activity at 1 µg/ml with Raji cells (HEK-Blue: OX40 NF-κB reporter, relative to 1 µg/ml OX40 ligand)” value in [7] amounted to 103%. In [7], the “fold of agonism enhancement upon crosslinking (Raji cells)” value came to 25 fold.

These data come from US20190062420A1 (Janssen / Centocor, published 2019).
